This is an account of results in paper PMC7605860.

A short description of the data set: immunostaining, confocal microscopy, FBL/FTotal ratio in polarized MDCK cells. The note with it: glycan lost; control: corin WT.

B1: corin: N567Q (protein)
parent chain: MKQSPALAPEERCRRAGSPKPVLRADDNNMGNGCSQKLATANLLRFLLLVLIPCICALVLLLVILLSYVGTLQKVYFKSNGSEPLVTDGEIQGSDVILTNTIYNQSTVVSTAHPDQHVPAWTTDASLPGDQSHRNTSACMNITHSQCQMLPYHATLTPLLSVVRNMEMEKFLKFFTYLHRLSCYQHIMLFGCTLAFPECIIDGDDSHGLLPCRSFCEAAKEGCESVLGMVNYSWPDFLRCSQFRNQTESSNVSRICFSPQQENGKQLLCGRGENFLCASGICIPGKLQCNGYNDCDDWSDEAHCNCSENLFHCHTGKCLNYSLVCDGYDDCGDLSDEQNCDCNPTTEHRCGDGRCIAMEWVCDGDHDCVDKSDEVNCSCHSQGLVECRNGQCIPSTFQCDGDEDCKDGSDEENCSVIQTSCQEGDQRCLYNPCLDSCGGSSLCDPNNSLNNCSQCEPITLELCMNLPYNSTSYPNYFGHRTQKEASISWESSLFPALVQTNCYKYLMFFSCTILVPKCDVNTGEHIPPCRALCEHSKERCESVLGIVGLQWPEDTDCSQFPEENSDNQTCLMPDEYVEECSPSHFKCRSGQCVLASRRCDGQADCDDDSDEENCGCKERDLWECPSNKQCLKHTVICDGFPDCPDYMDEKNCSFCQDDELECANHACVSRDLWCDGEADCSDSSDEWDCVTLSINVNSSSFLMVHRAATEHHVCADGWQEILSQLACKQMGLGEPSVTKLIQEQEKEPRWLTLHSNWESLNGTTLHELLVNGQSCESRSKISLLCTKQDCGRRPAARMNKRILGGRTSRPGRWPWQCSLQSEPSGHICGCVLIAKKWVLTVAHCFEGRENAAVWKVVLGINNLDHPSVFMQTRFVKTIILHPRYSRAVVDYDISIVELSEDISETGYVRPVCLPNPEQWLEPDTYCYITGWGHMGNKMPFKLQEGEVRIISLEHCQSYFDMKTITTRMICAGYESGTVDSCMGDSGGPLVCEKPGGRWTLFGLTSWGSVCFSKVLGPGVYSNVSYFVEWIKRQIYIQTFLLN
Take B1: the localisation_or_trafficking result is reported as “no change”.

B2: corin: N651Q (protein)
parent chain: MKQSPALAPEERCRRAGSPKPVLRADDNNMGNGCSQKLATANLLRFLLLVLIPCICALVLLLVILLSYVGTLQKVYFKSNGSEPLVTDGEIQGSDVILTNTIYNQSTVVSTAHPDQHVPAWTTDASLPGDQSHRNTSACMNITHSQCQMLPYHATLTPLLSVVRNMEMEKFLKFFTYLHRLSCYQHIMLFGCTLAFPECIIDGDDSHGLLPCRSFCEAAKEGCESVLGMVNYSWPDFLRCSQFRNQTESSNVSRICFSPQQENGKQLLCGRGENFLCASGICIPGKLQCNGYNDCDDWSDEAHCNCSENLFHCHTGKCLNYSLVCDGYDDCGDLSDEQNCDCNPTTEHRCGDGRCIAMEWVCDGDHDCVDKSDEVNCSCHSQGLVECRNGQCIPSTFQCDGDEDCKDGSDEENCSVIQTSCQEGDQRCLYNPCLDSCGGSSLCDPNNSLNNCSQCEPITLELCMNLPYNSTSYPNYFGHRTQKEASISWESSLFPALVQTNCYKYLMFFSCTILVPKCDVNTGEHIPPCRALCEHSKERCESVLGIVGLQWPEDTDCSQFPEENSDNQTCLMPDEYVEECSPSHFKCRSGQCVLASRRCDGQADCDDDSDEENCGCKERDLWECPSNKQCLKHTVICDGFPDCPDYMDEKNCSFCQDDELECANHACVSRDLWCDGEADCSDSSDEWDCVTLSINVNSSSFLMVHRAATEHHVCADGWQEILSQLACKQMGLGEPSVTKLIQEQEKEPRWLTLHSNWESLNGTTLHELLVNGQSCESRSKISLLCTKQDCGRRPAARMNKRILGGRTSRPGRWPWQCSLQSEPSGHICGCVLIAKKWVLTVAHCFEGRENAAVWKVVLGINNLDHPSVFMQTRFVKTIILHPRYSRAVVDYDISIVELSEDISETGYVRPVCLPNPEQWLEPDTYCYITGWGHMGNKMPFKLQEGEVRIISLEHCQSYFDMKTITTRMICAGYESGTVDSCMGDSGGPLVCEKPGGRWTLFGLTSWGSVCFSKVLGPGVYSNVSYFVEWIKRQIYIQTFLLN
B2: the localisation_or_trafficking result is “no change”.

B3: corin: N1022Q (protein)
parent chain: MKQSPALAPEERCRRAGSPKPVLRADDNNMGNGCSQKLATANLLRFLLLVLIPCICALVLLLVILLSYVGTLQKVYFKSNGSEPLVTDGEIQGSDVILTNTIYNQSTVVSTAHPDQHVPAWTTDASLPGDQSHRNTSACMNITHSQCQMLPYHATLTPLLSVVRNMEMEKFLKFFTYLHRLSCYQHIMLFGCTLAFPECIIDGDDSHGLLPCRSFCEAAKEGCESVLGMVNYSWPDFLRCSQFRNQTESSNVSRICFSPQQENGKQLLCGRGENFLCASGICIPGKLQCNGYNDCDDWSDEAHCNCSENLFHCHTGKCLNYSLVCDGYDDCGDLSDEQNCDCNPTTEHRCGDGRCIAMEWVCDGDHDCVDKSDEVNCSCHSQGLVECRNGQCIPSTFQCDGDEDCKDGSDEENCSVIQTSCQEGDQRCLYNPCLDSCGGSSLCDPNNSLNNCSQCEPITLELCMNLPYNSTSYPNYFGHRTQKEASISWESSLFPALVQTNCYKYLMFFSCTILVPKCDVNTGEHIPPCRALCEHSKERCESVLGIVGLQWPEDTDCSQFPEENSDNQTCLMPDEYVEECSPSHFKCRSGQCVLASRRCDGQADCDDDSDEENCGCKERDLWECPSNKQCLKHTVICDGFPDCPDYMDEKNCSFCQDDELECANHACVSRDLWCDGEADCSDSSDEWDCVTLSINVNSSSFLMVHRAATEHHVCADGWQEILSQLACKQMGLGEPSVTKLIQEQEKEPRWLTLHSNWESLNGTTLHELLVNGQSCESRSKISLLCTKQDCGRRPAARMNKRILGGRTSRPGRWPWQCSLQSEPSGHICGCVLIAKKWVLTVAHCFEGRENAAVWKVVLGINNLDHPSVFMQTRFVKTIILHPRYSRAVVDYDISIVELSEDISETGYVRPVCLPNPEQWLEPDTYCYITGWGHMGNKMPFKLQEGEVRIISLEHCQSYFDMKTITTRMICAGYESGTVDSCMGDSGGPLVCEKPGGRWTLFGLTSWGSVCFSKVLGPGVYSNVSYFVEWIKRQIYIQTFLLN
Regarding B3, the localisation_or_trafficking result is reported as “no change”.

B4: corin: N761Q (protein)
parent chain: MKQSPALAPEERCRRAGSPKPVLRADDNNMGNGCSQKLATANLLRFLLLVLIPCICALVLLLVILLSYVGTLQKVYFKSNGSEPLVTDGEIQGSDVILTNTIYNQSTVVSTAHPDQHVPAWTTDASLPGDQSHRNTSACMNITHSQCQMLPYHATLTPLLSVVRNMEMEKFLKFFTYLHRLSCYQHIMLFGCTLAFPECIIDGDDSHGLLPCRSFCEAAKEGCESVLGMVNYSWPDFLRCSQFRNQTESSNVSRICFSPQQENGKQLLCGRGENFLCASGICIPGKLQCNGYNDCDDWSDEAHCNCSENLFHCHTGKCLNYSLVCDGYDDCGDLSDEQNCDCNPTTEHRCGDGRCIAMEWVCDGDHDCVDKSDEVNCSCHSQGLVECRNGQCIPSTFQCDGDEDCKDGSDEENCSVIQTSCQEGDQRCLYNPCLDSCGGSSLCDPNNSLNNCSQCEPITLELCMNLPYNSTSYPNYFGHRTQKEASISWESSLFPALVQTNCYKYLMFFSCTILVPKCDVNTGEHIPPCRALCEHSKERCESVLGIVGLQWPEDTDCSQFPEENSDNQTCLMPDEYVEECSPSHFKCRSGQCVLASRRCDGQADCDDDSDEENCGCKERDLWECPSNKQCLKHTVICDGFPDCPDYMDEKNCSFCQDDELECANHACVSRDLWCDGEADCSDSSDEWDCVTLSINVNSSSFLMVHRAATEHHVCADGWQEILSQLACKQMGLGEPSVTKLIQEQEKEPRWLTLHSNWESLNGTTLHELLVNGQSCESRSKISLLCTKQDCGRRPAARMNKRILGGRTSRPGRWPWQCSLQSEPSGHICGCVLIAKKWVLTVAHCFEGRENAAVWKVVLGINNLDHPSVFMQTRFVKTIILHPRYSRAVVDYDISIVELSEDISETGYVRPVCLPNPEQWLEPDTYCYITGWGHMGNKMPFKLQEGEVRIISLEHCQSYFDMKTITTRMICAGYESGTVDSCMGDSGGPLVCEKPGGRWTLFGLTSWGSVCFSKVLGPGVYSNVSYFVEWIKRQIYIQTFLLN
On to B4, for which the localisation_or_trafficking entry is on record as “no change”.

B5: corin: N697Q (protein)
parent chain: MKQSPALAPEERCRRAGSPKPVLRADDNNMGNGCSQKLATANLLRFLLLVLIPCICALVLLLVILLSYVGTLQKVYFKSNGSEPLVTDGEIQGSDVILTNTIYNQSTVVSTAHPDQHVPAWTTDASLPGDQSHRNTSACMNITHSQCQMLPYHATLTPLLSVVRNMEMEKFLKFFTYLHRLSCYQHIMLFGCTLAFPECIIDGDDSHGLLPCRSFCEAAKEGCESVLGMVNYSWPDFLRCSQFRNQTESSNVSRICFSPQQENGKQLLCGRGENFLCASGICIPGKLQCNGYNDCDDWSDEAHCNCSENLFHCHTGKCLNYSLVCDGYDDCGDLSDEQNCDCNPTTEHRCGDGRCIAMEWVCDGDHDCVDKSDEVNCSCHSQGLVECRNGQCIPSTFQCDGDEDCKDGSDEENCSVIQTSCQEGDQRCLYNPCLDSCGGSSLCDPNNSLNNCSQCEPITLELCMNLPYNSTSYPNYFGHRTQKEASISWESSLFPALVQTNCYKYLMFFSCTILVPKCDVNTGEHIPPCRALCEHSKERCESVLGIVGLQWPEDTDCSQFPEENSDNQTCLMPDEYVEECSPSHFKCRSGQCVLASRRCDGQADCDDDSDEENCGCKERDLWECPSNKQCLKHTVICDGFPDCPDYMDEKNCSFCQDDELECANHACVSRDLWCDGEADCSDSSDEWDCVTLSINVNSSSFLMVHRAATEHHVCADGWQEILSQLACKQMGLGEPSVTKLIQEQEKEPRWLTLHSNWESLNGTTLHELLVNGQSCESRSKISLLCTKQDCGRRPAARMNKRILGGRTSRPGRWPWQCSLQSEPSGHICGCVLIAKKWVLTVAHCFEGRENAAVWKVVLGINNLDHPSVFMQTRFVKTIILHPRYSRAVVDYDISIVELSEDISETGYVRPVCLPNPEQWLEPDTYCYITGWGHMGNKMPFKLQEGEVRIISLEHCQSYFDMKTITTRMICAGYESGTVDSCMGDSGGPLVCEKPGGRWTLFGLTSWGSVCFSKVLGPGVYSNVSYFVEWIKRQIYIQTFLLN
Regarding B5, the localisation_or_trafficking result was “no change”.
